Source: patent publication US20150023971A1

Key:
[1] = target: T1, …; assay: SPOT length analysis, dot 15, HRP-S-protein detection
T1 sequence (peptide): SSDFAKNFVQTD

DFAKNFV = target: T2, DFAKNFV; assay: SPOT length analysis, dot 52, HRP-S-protein detection
T2 sequence (peptide): DFAKNFV

FVQTD = target: T3, FVQTD; assay: SPOT length analysis, dot 78, anti-histidine detection
T3 sequence (peptide): FVQTD

[2] = target: T4, …; assay: SPOT length analysis, dot 22, HRP-S-protein detection
T4 sequence (peptide): RIFRSSDFAK

AKNFVQT = target: T5, AKNFVQT; assay: SPOT length analysis, dot 54, anti-histidine detection
T5 sequence (peptide): AKNFVQT

SDFAKNF = target: T6, SDFAKNF; assay: SPOT length analysis, dot 51, HRP-S-protein detection
T6 sequence (peptide): SDFAKNF

FAKNFV = target: T7, FAKNFV; assay: SPOT length analysis, dot 63, HRP-S-protein detection
T7 sequence (peptide): FAKNFV

SDFAKNFV = target: T8, SDFAKNFV; assay: SPOT length analysis, dot 42, anti-histidine detection
T8 sequence (peptide): SDFAKNFV

AKNFV = target: T9, AKNFV; assay: SPOT length analysis, dot 75, HRP-S-protein detection
T9 sequence (peptide): AKNFV

FAKNF = target: T10, FAKNF; assay: SPOT length analysis, dot 74, HRP-S-protein detection
T10 sequence (peptide): FAKNF

[3] = target: T11, …; assay: SPOT length analysis, dot 23, anti-histidine detection
T11 sequence (peptide): IFRSSDFAKN

SSDFAK [4] = target: T12, SSDFAK; assay: SPOT length analysis, dot 60, anti-histidine detection
T12 sequence (peptide): SSDFAK

RSSD = target: T13, RSSD; assay: SPOT length analysis, dot 82, HRP-S-protein detection
T13 sequence (peptide): RSSD

RIFRSSD [5] = target: T14, RIFRSSD; assay: SPOT length analysis, dot 46, HRP-S-protein detection
T14 sequence (peptide): RIFRSSD

[6] = target: T15, sortilin peptide RIFRSSDF on SPOT membrane; assay: SPOT length analysis, dot 37, anti-histidine detection
T15 sequence (peptide, C-terminus anchored to the cellulose membrane through a beta-alanine linker): RIFRSSDF

KNFVQT = target: T16, KNFVQT; assay: SPOT length analysis, dot 65, HRP-S-protein detection
T16 sequence (peptide): KNFVQT

[7] = target: T17, …; assay: SPOT length analysis, dot 21, HRP-S-protein detection
T17 sequence (peptide): SDFAKNFVQTD

SDFAK = target: T18, SDFAK; assay: SPOT length analysis, dot 72, anti-histidine detection
T18 sequence (peptide): SDFAK

SSDFAK [8] = target: T12, SSDFAK; assay: SPOT length analysis, dot 60, HRP-S-protein detection
SDFA = target: T19, SDFA; assay: SPOT length analysis, dot 84, HRP-S-protein detection
T19 sequence (peptide): SDFA

FRSS = target: T20, FRSS; assay: SPOT length analysis, dot 81, HRP-S-protein detection
T20 sequence (peptide): FRSS

AKNFVQTD = target: T21, AKNFVQTD; assay: SPOT length analysis, dot 45, anti-histidine detection
T21 sequence (peptide): AKNFVQTD

[9] = target: T22, …; assay: SPOT length analysis, dot 3, HRP-S-protein detection
T22 sequence (peptide): IFRSSDFAKNFVQTD

[10] = target: T23, …; assay: SPOT length analysis, dot 14, HRP-S-protein detection
T23 sequence (peptide): RSSDFAKNFVQT

AKNF = target: T24, AKNF; assay: SPOT length analysis, dot 87, HRP-S-protein detection
T24 sequence (peptide): AKNF

RIFRSS = target: T25, RIFRSS; assay: SPOT length analysis, dot 56, anti-histidine detection
T25 sequence (peptide): RIFRSS

[11] = target: T26, …; assay: SPOT length analysis, dot 28, anti-histidine detection
T26 sequence (peptide): DFAKNFVQTD

RIFRSSD [12] = target: T14, RIFRSSD; assay: SPOT length analysis, dot 46, anti-histidine detection
[13] = target: T27, …; assay: SPOT length analysis, dot 30, HRP-S-protein detection
T27 sequence (peptide): IFRSSDFAK

[14] = target: T28, …; assay: SPOT length analysis, dot 17, anti-histidine detection
T28 sequence (peptide): IFRSSDFAKNF

FAKN = target: T29, FAKN; assay: SPOT length analysis, dot 86, HRP-S-protein detection
T29 sequence (peptide): FAKN

IFRSSD = target: T30, IFRSSD; assay: SPOT length analysis, dot 57, anti-histidine detection
T30 sequence (peptide): IFRSSD

[15] = target: T31, …; assay: SPOT length analysis, dot 27, anti-histidine detection
T31 sequence (peptide): SDFAKNFVQT

RSSDFAK = target: T32, RSSDFAK; assay: SPOT length analysis, dot 49, HRP-S-protein detection
T32 sequence (peptide): RSSDFAK

IFRSSDF = target: T33, IFRSSDF; assay: SPOT length analysis, dot 47, anti-histidine detection
T33 sequence (peptide): IFRSSDF

FRSSDFAK = target: T34, FRSSDFAK; assay: SPOT length analysis, dot 39, anti-histidine detection
T34 sequence (peptide): FRSSDFAK

B1: recombinant his-S-tagged pro-domain of human BDNF (residues Ala1-Arg110), from pET-30 Xa/LIC, E. coli (protein, not shown: small tags and cut ends)
chain: APMKEANIRGQGGLAYPGVRTHGTLESVNGPKAGSGLTSLADTFEHVIEELLDEDQKVRPNEENNKDADLYTSRVMLSSQVPLEPPLLFLLEEYKNYLDAANMSMRVRR
**Q.** With B1 as the binder, how does the BLU Sprotein [1] read?
**A.** 22400 BLU

**Q.** And the BLU Sprotein (DFAKNFV)?
**A.** 17400 BLU

**Q.** What about the BLU His (FVQTD) of the same binder?
**A.** 22400 BLU

**Q.** And the BLU Sprotein [2]?
**A.** 60500 BLU

**Q.** What about the BLU His (AKNFVQT) of the same binder?
**A.** 17300 BLU

**Q.** And the BLU Sprotein (SDFAKNF)?
**A.** 17200 BLU

**Q.** What about the BLU Sprotein (FAKNFV) of the same binder?
**A.** 29600 BLU

**Q.** What about the BLU His (SDFAKNFV) of the same binder?
**A.** 16300 BLU

**Q.** What about the BLU Sprotein (AKNFV) of the same binder?
**A.** 15900 BLU

**Q.** And the BLU Sprotein (FAKNF)?
**A.** 17500 BLU

**Q.** And the BLU His [3]?
**A.** 19700 BLU

**Q.** And the BLU His (SSDFAK [4])?
**A.** 16100 BLU

**Q.** What about the BLU Sprotein (RSSD) of the same binder?
**A.** 14900 BLU

**Q.** What about the BLU Sprotein (RIFRSSD [5]) of the same binder?
**A.** 21500 BLU

**Q.** What about the BLU His [6] of the same binder?
**A.** 116000 BLU

**Q.** What about the BLU Sprotein (KNFVQT) of the same binder?
**A.** 14300 BLU

**Q.** And the BLU Sprotein [7]?
**A.** 16900 BLU

**Q.** What about the BLU His (SDFAK) of the same binder?
**A.** 15900 BLU

**Q.** And the BLU Sprotein (SSDFAK [8])?
**A.** 15900 BLU

**Q.** What about the BLU Sprotein (SDFA) of the same binder?
**A.** 13300 BLU

**Q.** And the BLU Sprotein (FRSS)?
**A.** 37000 BLU

**Q.** What about the BLU His (AKNFVQTD) of the same binder?
**A.** 16000 BLU

**Q.** What about the BLU Sprotein [9] of the same binder?
**A.** 76200 BLU

**Q.** And the BLU Sprotein [10]?
**A.** 24600 BLU

**Q.** And the BLU Sprotein (AKNF)?
**A.** 13700 BLU

**Q.** And the BLU His (RIFRSS)?
**A.** 122000 BLU

**Q.** What about the BLU His [11] of the same binder?
**A.** 17400 BLU

**Q.** What about the BLU His (RIFRSSD [12]) of the same binder?
**A.** 20200 BLU

**Q.** And the BLU Sprotein [13]?
**A.** 25700 BLU

**Q.** And the BLU His [14]?
**A.** 40700 BLU

**Q.** What about the BLU Sprotein (FAKN) of the same binder?
**A.** 13700 BLU

**Q.** And the BLU His (IFRSSD)?
**A.** 17900 BLU

**Q.** What about the BLU His [15] of the same binder?
**A.** 17500 BLU

**Q.** And the BLU Sprotein (RSSDFAK)?
**A.** 16400 BLU

**Q.** And the BLU His (IFRSSDF)?
**A.** 24400 BLU

**Q.** What about the BLU His (FRSSDFAK) of the same binder?
**A.** 19000 BLU
